# Laboratory results as given in patent US10597674B2, “HPPD variants and methods of use” (BASF Agricultural Solutions Seed, US LLC, priority 2015, dated 2020).
# Positions count from the first letter of the chain named.
# B1: 77 (protein)
# chain: MADLYENPMGLMGFEFIEFASPTPGTLEPIFEIMGFTKVATHRSKNVHLYRQGEINLILNNEPNSIASYFAAEHGPSVCGMAFRVKDSQKAYNRALELGAQPIHIDTGPMELNLPAIKGIGGAPLYLIDRFGEGSSIYDIDFVYLEGVERNPVGAGLKVIDHLTHNVYRGRMVYWANFYEKLFNFREARYFDIKGEYTGLTSKAMSAPDGMIRIPLNEESSKGAGQIEEFLMQFNGEGIQHVAFLTDDLVKTWDALKKIGMRFMTAPGDSYYEMLEGRLPDHGEPVDQLQARGILLDGSSVEGDKRLLLQIFSETLMGPVFFEFIQRKGDDGFGPDSFKVLFESVERDQVRRGVLTAD
# modifications: mutant HPPD polypeptide
# B2: 44 (protein)
# chain: B1 chain with R213L, S270E
# modifications: mutant HPPD polypeptide
# B3: 83 (protein)
# chain: B1 chain with S270E, V340G
# modifications: mutant HPPD polypeptide
# B4: 52 (protein)
# chain: B1 chain with S270E, D331S
# modifications: mutant HPPD polypeptide
# B5: 81 (protein)
# chain: B1 chain with S270E, V340A
# modifications: mutant HPPD polypeptide
# B6: 57 (protein)
# chain: B1 chain with S270E, K339T
# modifications: mutant HPPD polypeptide
# B7: 46 (protein)
# chain: B1 chain with S270E, T315M
# modifications: mutant HPPD polypeptide
# B8: 76 (protein)
# chain: B1 chain with S270R
# modifications: mutant HPPD polypeptide
# B9: 40 (protein)
# chain: B1 chain with A204M, S270E
# modifications: mutant HPPD polypeptide
# B10: 72 (protein)
# chain: B1 chain with G268R, S270E
# modifications: mutant HPPD polypeptide
# B11: 67 (protein)
# chain: B1 chain with M264K, S270E
# modifications: mutant HPPD polypeptide
# B12: 73 (protein)
# chain: B1 chain with G268S, S270E
# modifications: mutant HPPD polypeptide
# B13: 56 (protein)
# chain: B1 chain with S270E, K339R
# modifications: mutant HPPD polypeptide
# B14: SEQ ID NO: 103 (protein)
# chain: B1 chain with R213K, M264L, S270E, T315R, D336H, S344Q, V345M
# modifications: mutant HPPD polypeptide
# B15: SEQ ID NO: 1: reference wild-type Pseudomonas fluorescens HPPD polypeptide (protein, listed as Pseudomonas fluorescens)
# chain: B1 chain with G268P, S270T, P335E, D336G, S337N, V340A, V345I
# modifications: 4-hydroxyphenylpyruvate dioxygenase (HPPD; Pseudomonas fluorescens) (1)..(358)
# B16: 32 (protein)
# chain: B1 chain with G268R, S270E, D336H
# modifications: mutant HPPD polypeptide
# B17: SEQ ID NO:104 (protein)
# chain: B1 chain with R213K, M264L, S270E, D336H, S344Q, V345M
# modifications: mutant HPPD polypeptide
# B18: 96 (protein)
# chain: B1 chain with R213K, S270E, D336H
# modifications: mutant HPPD polypeptide
# System: HPPD polypeptides (wild-type SEQ ID NO:1 and mutants)
# Assay: not given
# Settings: kapp in presence of 50 μM Cmpd. 1, normalised to kapp without inhibitor; low substrate concentration
row,Molecule,Residual activity [%]
1,B1,19
2,B2,58
3,B3,53
4,B4,31
5,B5,17
6,B6,33
7,B7,32
8,B8,19
9,B9,65
10,B10,25
11,B11,73
12,B12,29
13,B13,27

# Same assay, conditions: total change in signal in presence of 50 μM Cmpd. 1, normalised to that without inhibitor; low substrate concentration
row,Molecule,Residual turnover [%]
1,B1,44
2,B2,78
3,B3,87
4,B4,57
5,B5,51
6,B6,68
7,B7,59
8,B8,50
9,B9,77
10,B10,55
11,B11,96
12,B12,58
13,B13,59

# System: E. coli cells expressing an HPPD polypeptide
# Assay: Brown Color Assay on solid LB-agar, visual score of brown pigment
# Assay type: cell-based
# Design: key to brown pigment formation: +++: a dark brown coloring as seen for E. coli cells expressing one of the respective mutant HPPD polypeptide without inhibitor; ++: medium brown pigmentation; +: light brown pigmentation; 0: no brown pigmentation development was detected on the LB agar plates
# Settings: 25 μM Cmpd. 1, scored after 7 days
# Method: Mutant HPPD polypeptides were analyzed using a brown color assay (WO2014/043435). Bacterial cells expressing the mutant HPPD polypeptide according to the invention were assayed in 96 well format for HPPD inhibitor tolerance by spotting on solid media containing LB-agar, selection agent for the expression vector pSE420(RI)NX (WO2014/043435), 5 mM tyrosine (Sigma-Aldrich, St. Louis, USA), 42 mM succinate (Sigma-Aldrich, St. Louis, USA) and six different concentrations of the HPPD inhibitor herbicide Cmpd. 1 (0-500 μM). In the brown color assay, an overnight culture of the E. coli cells expressing one of the respective mutant HPPD polypeptides were diluted to an OD600 of 1 and 10 μl extract was spotted in triplicates on plates containing 0, 25, 50, 100, 250, or 500 μM of Cmpd. 1. Plates were covered with airpore tape and incubated at 30 degrees C. After 24 hours, the cells were kept in darkness at room temperature and after 7 days the brown pigment formation was scored visually. In the presence of an HPPD inhibitor herbicide, this pigment formation is inhibited and the color of the agar plate will not alter, unless an HPPD inhibitor herbicide tolerant HPPD polypeptide is expressed and active. […] The “++” and “+” scores a medium and light brown pigmentation, respectively, and the “0” means that no brown pigmentation development was detected on the LB agar plates.
row,Molecule,brown pigment formation
1,B14,++
2,B15,0

# Same assay, conditions: 50 μM Cmpd. 1, scored after 7 days
row,Molecule,brown pigment formation
1,B14,++
2,B15,0

# Same assay, conditions: 100 μM Cmpd. 1, scored after 7 days
row,Molecule,brown pigment formation
1,B14,++
2,B15,0

# Same assay, conditions: 250 μM Cmpd. 1, scored after 7 days
row,Molecule,brown pigment formation
1,B14,+
2,B15,0

# Same assay, conditions: 500 μM Cmpd. 1, scored after 7 days
row,Molecule,brown pigment formation
1,B14,0
2,B15,0

# Same assay, conditions: 25, 50, 100, 250 and 500 μM Cmpd. 1
row,Molecule,"brown coloring compared with SEQ ID NO: 2, in words"
1,B16,stronger brown coloring
2,B17,stronger brown coloring
3,B18,stronger brown coloring

# System: E. coli cells expressing an HPPD polypeptide
# Assay: Brown color bioassay in liquid culture, residual brown color formation (BCF), OD440 after 96 hours
# Assay type: cell-based
# Settings: brown color formation in absence of Cmpd. 1, culture supernatant after 96 hours, 5 mM HPP
# In short: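 E. coli expressing HPPD variants were grown at 30 degrees Celsius from OD600 0.3-0.5 in LB with 5 mM HPP, with or without herbicide (e.g. Cmpd. 1, 1000 μM). After 96 hours, supernatant OD440 was measured; residual brown colour formation compares pigment with and without inhibitor.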
row,Molecule,Control BCF OD440nm
1,B1,2.57
2,B2,1.60
3,B3,1.83
4,B4,2.08
5,B5,2.05
6,B6,1.39
7,B7,2.47
8,B8,2.73
9,B9,1.89
10,B10,2.77
11,B11,1.93
12,B12,2.75
13,B13,1.98

# Same assay, conditions: brown color formation with Cmpd. 1 (1000 μM) relative to without, after 96 hours
row,Molecule,Residual BCF OD440nm [%]
1,B1,67
2,B2,40
3,B3,47
4,B4,65
5,B5,39
6,B6,46
7,B7,66
8,B8,58
9,B9,58
10,B10,72
11,B11,71
12,B12,72
13,B13,68
